In patent US9766250B2, “Method for detecting protein-protein interaction” (MEDICAL & BIOLOGICAL LABORATORIES CO., LTD., priority 2011, dated 2017):

Tests used:
[1] = molecular target: T1, mTOR(FRB) and FKBP12 interaction (Homo sapiens, UniProt P42345+P62942); assay: Degree of fluorescent focus (assembly) formation after rapamycin, fluorescent proteins fused to mTOR(FRB) (Example 8, Table 1); assay type: cell-based; set-up: key to degree of fluorescent focus formation, Tankyrase (SAM): +++: fluorescent foci were observed in 50% or more of the HeLaS3 cells; ++: fluorescent foci were observed in 50% or less of the HeLaS3 cells; +: fluorescent foci were observed in 293T cells expressing a larger amount of proteins than that in the HeLaS3 cells; details: fluorescent protein fused to mTOR(FRB); for degree of fluorescent focus formation, DGKd (SAM): with FKBP12-DGKd(SAM); for degree of fluorescent focus formation, TEL (SAM): with FKBP12-TEL(SAM); for degree of fluorescent focus formation, Tankyrase (SAM): with FKBP12-Tankyrase(SAM), some combinations in 293T cells; for degree of fluorescent focus formation, P62 (PB1): with p62(PB1)-FKBP12
T1 construct: region having the 2025th to 2114th amino acids of the mTOR protein; expressed in transfected cells; host or cells: HeLaS3; 293T for some combinations with FKBP12-Tankyrase(SAM)
Description: Note that plasmid DNAs encoding fusion proteins composed of mTOR(FRB) and the corresponding fluorescent proteins were prepared as appropriate by the same method as that described in Example 2. Moreover, regarding the combinations of FKBP12-Tankyrase(SAM) with mKO2, mKeima, mMiCy1, mKO1, MiCy1, and TGuv, the test was conducted by introducing the genes into 293T cells. Specifically, the 293T cells were cultured in DMEM High glucose (manufactured by SIGMA ALDRICH CO.) containing 10% FBS (manufactured by Equitech-Bio Inc.). Moreover, the 293T cells were seeded onto an 8-well chamber (manufactured by Nunc A/S) 6 hours before the plasmid DNAs were introduced. Further, at the time of the transfection, 200 ng of the plasmid DNA encoding FKBP12-Tankyrase(SAM) and 200 ng of one of the plasmid DNAs encoding fusion proteins composed of the fluorescent proteins and mTOR(FRB) were diluted with 30 μl of OptiMEM (manufactured by Life Technologies Corporation), and 1.2 μl of TurboFect Transfection Reagent (manufactured by Thermo Fisher Scientific Inc.) was added thereto and stirred. Then, the resultant was further mixed with 300 μl of the culture solution, subsequently added to the 293T cells, and observed 48 hours later.

[2] = molecular target: T1, mTOR(FRB) and FKBP12 interaction; assay: Degree of fluorescent focus (assembly) formation after rapamycin with TFG(PB1) (Example 9, Table 2); assay type: cell-based; set-up: key: ++: fluorescent foci were observed in 50% or less of the HeLaS3 cells; +: fluorescent foci were observed in the 293T cells expressing a larger amount of proteins than that in the HeLaS3 cells; details: fluorescent protein fused to mTOR(FRB), KO1 and dAG (AB) in 293T cells

T1 sequence (P42345 2025-2114): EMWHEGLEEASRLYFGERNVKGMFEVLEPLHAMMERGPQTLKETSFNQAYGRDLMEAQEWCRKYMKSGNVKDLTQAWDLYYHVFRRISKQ
T1 sequence (P62942 whole entry, the tested form may be a part): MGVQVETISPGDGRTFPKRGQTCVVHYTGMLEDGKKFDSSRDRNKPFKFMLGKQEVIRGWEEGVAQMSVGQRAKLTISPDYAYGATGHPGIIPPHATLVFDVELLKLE

Substance	degree of fluorescent focus formation, DGKd (SAM) [1]	degree of fluorescent focus formation, TEL (SAM) [1]	degree of fluorescent focus formation, Tankyrase (SAM) [1]	degree of fluorescent focus formation, P62 (PB1) [1]	degree of fluorescent focus formation, TFG (PB1) [2]
dimeric Keima-Red [dKeima]	+++ (fluorescent foci were observed in 50% or more of the HeLaS3 cells)	+++ (fluorescent foci were observed in 50% or more of the HeLaS3 cells)	++ (fluorescent foci were observed in 50% or less of the HeLaS3 cells)	+++ (fluorescent foci were observed in 50% or more of the HeLaS3 cells)	–
Kusabira-Orange 1 [KO1]	+++ (fluorescent foci were observed in 50% or more of the HeLaS3 cells)	+++ (fluorescent foci were observed in 50% or more of the HeLaS3 cells)	++ (fluorescent foci were observed in 50% or less of the HeLaS3 cells)	+++ (fluorescent foci were observed in 50% or more of the HeLaS3 cells)	+
Azami-Green [AG]	+++ (fluorescent foci were observed in 50% or more of the HeLaS3 cells)	+++ (fluorescent foci were observed in 50% or more of the HeLaS3 cells)	+++ (fluorescent foci were observed in 50% or more of the HeLaS3 cells)	+++ (fluorescent foci were observed in 50% or more of the HeLaS3 cells)	++ (fluorescent foci were observed in 50% or less of the HeLaS3 cells)
monomeric Kusabira-Orange 1 [mKO1]	+++ (fluorescent foci were observed in 50% or more of the HeLaS3 cells)	+++ (fluorescent foci were observed in 50% or more of the HeLaS3 cells)	+	+++ (fluorescent foci were observed in 50% or more of the HeLaS3 cells)	–
Midoriishi-Cyan1 [MiCy1]	+++ (fluorescent foci were observed in 50% or more of the HeLaS3 cells)	+++ (fluorescent foci were observed in 50% or more of the HeLaS3 cells)	+	+++ (fluorescent foci were observed in 50% or more of the HeLaS3 cells)	–
Kikume Green-Red [KikGR]	+++ (fluorescent foci were observed in 50% or more of the HeLaS3 cells)	+++ (fluorescent foci were observed in 50% or more of the HeLaS3 cells)	+++ (fluorescent foci were observed in 50% or more of the HeLaS3 cells)	+++ (fluorescent foci were observed in 50% or more of the HeLaS3 cells)	++ (fluorescent foci were observed in 50% or less of the HeLaS3 cells)
monomeric Keima-Red [mKeima]	+++ (fluorescent foci were observed in 50% or more of the HeLaS3 cells)	++ (fluorescent foci were observed in 50% or less of the HeLaS3 cells)	+	+++ (fluorescent foci were observed in 50% or more of the HeLaS3 cells)	–
